Test results published in publication PMC10716581, “Fanconi anemia-associated mutation in RAD51 compromises the coordinated action of DNA-binding and ATPase activities”.

Target: RAD51-Q242R (human, UniProt Q06609 1-339, Q242R)
Experiment: EMSA; 2 mM ATP, 10 mM Mg2+; 20 mM Hepes-NaOH pH 7.5, 0.1 mg/ml BSA, 1 mM DTT, 10 mM MgCl2, 150 mM KCl, 2 mM ATP or AMP-PNP or no nucleotide, 2.7 uM (nt) DNA, 37 C 10 min; 8% native PAGE in 1x TBE
Conditions: protein: recombinant; tags: N-terminal His-tag removed with thrombin; chain copies: 8; label: 5'-Cy5 on strand 1; blunt

Chain of RAD51-Q242R (Q06609 whole entry Q242R): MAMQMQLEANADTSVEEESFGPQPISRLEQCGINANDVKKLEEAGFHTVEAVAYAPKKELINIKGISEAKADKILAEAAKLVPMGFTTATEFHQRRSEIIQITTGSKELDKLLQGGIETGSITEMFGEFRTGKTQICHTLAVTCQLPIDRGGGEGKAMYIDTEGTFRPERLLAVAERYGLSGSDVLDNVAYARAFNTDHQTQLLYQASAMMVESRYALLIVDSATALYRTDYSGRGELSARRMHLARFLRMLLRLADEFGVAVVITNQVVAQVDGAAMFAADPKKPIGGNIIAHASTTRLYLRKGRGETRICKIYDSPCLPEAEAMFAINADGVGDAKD

B1: Cy5-OL4/OL5 40-mer (dsDNA)
DNA 1: TAATACAAAATAAGTAAATGAATAAACAGAGAAAATAAAG
DNA 2: CTTTATTTTCTCTGTTTATTCATTTACTTATTTTGTATTA
binding result: binds
